Measurements as given in IntAct's records for PubMed 25910212.

B1: Torsin-1A (Homo sapiens), O14656 (parent)
chain: MKLGRAVLGLLLLAPSVVQAVEPISLGLALAGVLTGYIYPRLYCLFAECCGQKRSLSREALQKDLDDNLFGQHLAKKIILNAVFGFINNPKPKKPLTLSLHGWTGTGKNFVSKIIAENIYEGGLNSDYVHLFVATLHFPHASNITLYKDQLQLWIRGNVSACARSIFIFDEMDKMHAGLIDAIKPFLDYYDLVDGVSYQKAMFIFLSNAGAERITDVALDFWRSGKQREDIKLKDIEHALSVSVFNNKNSGFWHSSLIDRNLIDYFVPFLPLEYKHLKMCIRVEMQSRGYEIDEDIVSRVAEEMTFFPKEERVFSDKGCKTVFTKLDYYYDD
partner: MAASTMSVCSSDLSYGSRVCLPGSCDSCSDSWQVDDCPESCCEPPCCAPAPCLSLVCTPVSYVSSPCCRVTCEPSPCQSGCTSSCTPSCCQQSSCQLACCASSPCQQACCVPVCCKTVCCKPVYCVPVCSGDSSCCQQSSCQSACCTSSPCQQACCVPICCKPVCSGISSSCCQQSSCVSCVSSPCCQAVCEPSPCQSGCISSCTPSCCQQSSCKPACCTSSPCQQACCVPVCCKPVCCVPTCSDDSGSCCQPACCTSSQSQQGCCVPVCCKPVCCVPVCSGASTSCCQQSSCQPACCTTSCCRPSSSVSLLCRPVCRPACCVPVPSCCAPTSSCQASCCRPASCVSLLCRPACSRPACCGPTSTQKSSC
B2: Keratin, type II cytoskeletal 6A (Homo sapiens), P02538 (parent)
chain: MASTSTTIRSHSSSRRGFSANSARLPGVSRSGFSSVSVSRSRGSGGLGGACGGAGFGSRSLYGLGGSKRISIGGGSCAISGGYGSRAGGSYGFGGAGSGFGFGGGAGIGFGLGGGAGLAGGFGGPGFPVCPPGGIQEVTVNQSLLTPLNLQIDPTIQRVRAEEREQIKTLNNKFASFIDKVRFLEQQNKVLETKWTLLQEQGTKTVRQNLEPLFEQYINNLRRQLDSIVGERGRLDSELRGMQDLVEDFKNKYEDEINKRTAAENEFVTLKKDVDAAYMNKVELQAKADTLTDEINFLRALYDAELSQMQTHISDTSVVLSMDNNRNLDLDSIIAEVKAQYEEIAQRSRAEAESWYQTKYEELQVTAGRHGDDLRNTKQEIAEINRMIQRLRSEIDHVKKQCANLQAAIADAEQRGEMALKDAKNKLEGLEDALQKAKQDLARLLKEYQELMNVKLALDVEIATYRKLLEGEECRLNGEGVGQVNISVVQSTVSSGYGGASGVGSGLGLGGGSSYSYGSGLGVGGGFSSSSGRAIGGGLSSVGGGSSTIKYTTTSSSSRKSYKH
partner: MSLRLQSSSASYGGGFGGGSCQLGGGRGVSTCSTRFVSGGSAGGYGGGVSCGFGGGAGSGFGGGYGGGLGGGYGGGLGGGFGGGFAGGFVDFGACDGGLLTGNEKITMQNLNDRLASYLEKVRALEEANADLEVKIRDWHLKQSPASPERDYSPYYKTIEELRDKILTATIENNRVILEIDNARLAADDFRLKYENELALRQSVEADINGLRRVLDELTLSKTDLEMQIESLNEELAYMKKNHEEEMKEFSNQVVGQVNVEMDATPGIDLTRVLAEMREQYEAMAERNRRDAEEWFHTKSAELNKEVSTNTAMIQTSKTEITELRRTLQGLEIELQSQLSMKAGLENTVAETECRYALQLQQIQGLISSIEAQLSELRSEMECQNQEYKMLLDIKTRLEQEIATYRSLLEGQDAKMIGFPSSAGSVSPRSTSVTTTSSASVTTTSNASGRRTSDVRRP
B3: Phakinin (Homo sapiens), Q13515 (parent)
chain: MSERRVVVDLPTSASSSMPLQRRRASFRGPRSSSSLESPPASRTNAMSGLVRAPGVYVGTAPSGCIGGLGARVTRRALGISSVFLQGLRSSGLATVPAPGLERDHGAVEDLGGCLVEYMAKVHALEQVSQELETQLRMHLESKATRSGNWGALRASWASSCQQVGEAVLENARLMLQTETIQAGADDFKERYENEQPFRKAAEEEINSLYKVIDEANLTKMDLESQIESLKEELGSLSRNYEEDVKLLHKQLAGCELEQMDAPIGTGLDDILETIRIQWERDVEKNRVEAGALLQAKQQAEVAHMSQTQEEKLAAALRVELHNTSCQVQSLQAETESLRALKRGLENTLHDAKHWHDMELQNLGAVVGRLEAELREIRAEAEQQQQERAHLLARKCQLQKDVASYHALLDREESG
B4: Carbonic anhydrase-related protein (Homo sapiens), P35219 (parent)
chain: MADLSFIEDTVAFPEKEEDEEEEEEGVEWGYEEGVEWGLVFPDANGEYQSPINLNSREARYDPSLLDVRLSPNYVVCRDCEVTNDGHTIQVILKSKSVLSGGPLPQGHEFELYEVRFHWGRENQRGSEHTVNFKAFPMELHLIHWNSTLFGSIDEAVGKPHGIAIIALFVQIGKEHVGLKAVTEILQDIQYKGKSKTIPCFNPNTLLPDPLLRDYWVYEGSLTIPPCSEGVTWILFRYPLTISQLQIEEFRRLRTHVKGAELVEGCDGILGDNFRPTQPLSDRVIRAAFQ
partner: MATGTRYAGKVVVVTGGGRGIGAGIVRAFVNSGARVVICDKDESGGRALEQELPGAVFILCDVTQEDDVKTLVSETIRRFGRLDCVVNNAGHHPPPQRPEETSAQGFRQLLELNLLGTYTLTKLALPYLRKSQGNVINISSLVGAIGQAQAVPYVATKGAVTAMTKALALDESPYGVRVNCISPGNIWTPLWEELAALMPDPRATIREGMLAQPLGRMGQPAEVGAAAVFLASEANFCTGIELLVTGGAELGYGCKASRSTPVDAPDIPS
B5: Hepatocyte nuclear factor 4-alpha (Homo sapiens), P41235-3 (parent)
chain: MRLSKTLVDMDMADYSAALDPAYTTLEFENVQVLTMGNDTSPSEGTNLNAPNSLGVSALCAICGDRATGKHYGASSCDGCKGFFRRSVRKNHMYSCRFSRQCVVDKDKRNQCRYCRLKKCFRAGMKKEAVQNERDRISTRRSSYEDSSLPSINALLQAEVLSRQITSPVSGINGDIRAKKIASIADVCESMKEQLLVLVEWAKYIPAFCELPLDDQVALLRAHAGEHLLLGATKRSMVFKDVLLLGNDYIVPRHCPELAEMSRVSIRILDELVLPFQELQIDDNEYAYLKAIIFFDPDAKGLSDPGKIKRLRSQVQVSLEDYINDRQYDSRGRFGELLLLLPTLQSITWQMIEQIQFIKLFGMAKIDNLLQEMLLGGPCQAQEGRGWSGDSPGDRPHTVSSPLSSLASPLCRFGQVA
B6: Keratin, type II cytoskeletal 2 epidermal (Homo sapiens), P35908 (parent)
chain: MSCQISCKSRGRGGGGGGFRGFSSGSAVVSGGSRRSTSSFSCLSRHGGGGGGFGGGGFGSRSLVGLGGTKSISISVAGGGGGFGAAGGFGGRGGGFGGGSSFGGGSGFSGGGFGGGGFGGGRFGGFGGPGGVGGLGGPGGFGPGGYPGGIHEVSVNQSLLQPLNVKVDPEIQNVKAQEREQIKTLNNKFASFIDKVRFLEQQNQVLQTKWELLQQMNVGTRPINLEPIFQGYIDSLKRYLDGLTAERTSQNSELNNMQDLVEDYKKKYEDEINKRTAAENDFVTLKKDVDNAYMIKVELQSKVDLLNQEIEFLKVLYDAEISQIHQSVTDTNVILSMDNSRNLDLDSIIAEVKAQYEEIAQRSKEEAEALYHSKYEELQVTVGRHGDSLKEIKIEISELNRVIQRLQGEIAHVKKQCKNVQDAIADAEQRGEHALKDARNKLNDLEEALQQAKEDLARLLRDYQELMNVKLALDVEIATYRKLLEGEECRMSGDLSSNVTVSVTSSTISSNVASKAAFGGSGGRGSSSGGGYSSGSSSYGSGGRQSGSRGGSGGGGSISGGGYGSGGGSGGRYGSGGGSKGGSISGGGYGSGGGKHSSGGGSRGGSSSGGGYGSGGGGSSSVKGSSGEAFGSSVTFSFR
partner: B2 partner

Variants of: B1
Settings: with kr107_human KRTAP10-7, P60409

| Variant | effect of a mutation on the interaction |
| --- | --- |
| R288Q | with no effect |

Variants of: B2
Settings: with KRT13, P13646

| Variant | effect of a mutation on the interaction |
| --- | --- |
| N21S | with no effect |
| F249L | with no effect |
| F174V | with no effect |
| T552S | with no effect |
| I462S | with no effect |
| V523F | with no effect |
| A463P | with no effect |
| N171K | with no effect |

Variants of: B3
Settings: with atf4_human ATF4, P18848
Sequence of atf4_human ATF4, P18848 (P18848 whole entry): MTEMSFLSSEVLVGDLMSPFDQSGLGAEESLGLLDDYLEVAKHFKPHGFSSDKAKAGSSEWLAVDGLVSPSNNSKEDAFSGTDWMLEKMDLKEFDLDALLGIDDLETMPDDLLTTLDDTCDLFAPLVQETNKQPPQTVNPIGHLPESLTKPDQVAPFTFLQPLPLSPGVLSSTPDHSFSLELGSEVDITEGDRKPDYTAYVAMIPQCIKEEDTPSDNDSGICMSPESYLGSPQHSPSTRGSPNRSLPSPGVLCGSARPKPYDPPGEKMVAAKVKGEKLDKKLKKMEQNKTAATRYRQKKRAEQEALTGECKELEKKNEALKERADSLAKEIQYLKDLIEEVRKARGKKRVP

| Variant | effect of a mutation on the interaction |
| --- | --- |
| R339H | with no effect |
| A407D | with no effect |

Variants of: B3
Settings: with syce1_human SYCE1, Q8N0S2
Sequence of syce1_human SYCE1, Q8N0S2 (Q8N0S2 whole entry): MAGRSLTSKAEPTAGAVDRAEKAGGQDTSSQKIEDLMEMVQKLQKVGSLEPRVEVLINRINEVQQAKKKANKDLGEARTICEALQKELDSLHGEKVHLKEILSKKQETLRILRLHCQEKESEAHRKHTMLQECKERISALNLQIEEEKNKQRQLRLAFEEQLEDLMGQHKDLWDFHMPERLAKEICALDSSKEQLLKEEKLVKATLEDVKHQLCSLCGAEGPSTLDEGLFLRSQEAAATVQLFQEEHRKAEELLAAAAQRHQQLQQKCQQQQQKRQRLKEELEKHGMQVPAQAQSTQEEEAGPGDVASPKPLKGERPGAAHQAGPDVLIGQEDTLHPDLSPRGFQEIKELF

| Variant | effect of a mutation on the interaction |
| --- | --- |
| R339H | with no effect |
| A407D | with no effect |

Variants of: B4
Settings: with dhb14_human HSD17B14, Q9BPX1

| Variant | effect of a mutation on the interaction |
| --- | --- |
| S100P | disrupting interaction strength |

Variants of: B5
Settings: with plpp2_human PLPP2, O43688
Sequence of plpp2_human PLPP2, O43688 (O43688 whole entry, looked up): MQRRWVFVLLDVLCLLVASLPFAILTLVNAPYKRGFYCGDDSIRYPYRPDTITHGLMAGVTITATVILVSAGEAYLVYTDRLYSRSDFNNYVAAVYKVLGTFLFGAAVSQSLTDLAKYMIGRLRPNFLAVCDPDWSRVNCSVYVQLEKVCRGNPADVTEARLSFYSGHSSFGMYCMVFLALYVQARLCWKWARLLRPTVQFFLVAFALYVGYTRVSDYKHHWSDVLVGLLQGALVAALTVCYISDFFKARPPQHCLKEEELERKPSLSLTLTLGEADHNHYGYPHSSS

| Variant | effect of a mutation on the interaction |
| --- | --- |
| C102W | disrupting interaction strength |

Variants of: B5
Settings: with if1ay_human EIF1AY

| Variant | effect of a mutation on the interaction |
| --- | --- |
| C102W | disrupting interaction strength |

Variants of: B5
Settings: with dmd_human DMD

| Variant | effect of a mutation on the interaction |
| --- | --- |
| C102W | disrupting interaction strength |

Variants of: B6
Settings: with KRT13, P13646

| Variant | effect of a mutation on the interaction |
| --- | --- |
| I477N | disrupting interaction strength |
| N186K | with no effect |
| L484P | with no effect |
